These are literature values, as cited in paper PMC10618199.

Broadly, the Kd is the concentration at which binding is half-saturated.

The target in the data set is insulin receptor site-2 (Homo sapiens) (UniProt P06213).

insulin, sequence (P01308 90-110): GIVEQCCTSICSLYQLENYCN

Consider insulin (from UniProt P01308), for which the dissociation constant (Kd) was 400 nM.
